Data taken from FireProtDB (doi:10.1021/bi982158q).

B1: Cytochrome b5, P00171 (parent)
chain: MAEESSKAVKYYTLEEIQKHNNSKSTWLILHYKVYDLTKFLEEHPGGEEVLREQAGGDATENFEDVGHSTDARELSKTFIIGELHPDDRSKITKPSESIITTIDSNPSWWTNWLIPAISALFVALIYHLYTSEN

Variants of: B1
Details: Bos taurus, pH 7, K2HPO4 5 mM, transition: 2, reversible: Yes, structure 1CYO, whole UniProt chain shown; for denaturant m value / denaturant midpoint (higher = more stable) / unfolding free energy: 25 °C, Urea; for Tm / change of melting temperature, mutant - wild type (higher = more stable): Thermal

| Variant | denaturant m value (Absorbance) [kcal/mol/M] | denaturant midpoint (higher = more stable) (Absorbance) [M] | unfolding free energy (Absorbance) [kcal/mol] | denaturant m value (Fluorescence) [kcal/mol/M] | denaturant midpoint (higher = more stable) (Fluorescence) [M] | unfolding free energy (Fluorescence) [kcal/mol] | Tm (Absorbance) [°C] | change of melting temperature, mutant - wild type (higher = more stable) (Absorbance) [°C] | Tm (Fluorescence) [°C] | change of melting temperature, mutant - wild type (higher = more stable) (Fluorescence) [°C] |
| --- | --- | --- | --- | --- | --- | --- | --- | --- | --- | --- |
| S23C | 0.97 | 6.5 | 6.9 | 0.56 | 2.5 | 1.4 | 75.5 | 0.3 | 52.7 | 2.6 |
| S23C R52C | 0.81 | 6.4 | 5.2 | 0.93 | 3.7 | 3.4 | 76 | 0.8 | 60.8 | 10.7 |
